Laboratory results: publication PMC7188906

Assays:
human ACKR4-EYFP (human) [1] = biological target: T1, human ACKR4-EYFP (human) (UniProt Q9NPB9)
T1 sequence: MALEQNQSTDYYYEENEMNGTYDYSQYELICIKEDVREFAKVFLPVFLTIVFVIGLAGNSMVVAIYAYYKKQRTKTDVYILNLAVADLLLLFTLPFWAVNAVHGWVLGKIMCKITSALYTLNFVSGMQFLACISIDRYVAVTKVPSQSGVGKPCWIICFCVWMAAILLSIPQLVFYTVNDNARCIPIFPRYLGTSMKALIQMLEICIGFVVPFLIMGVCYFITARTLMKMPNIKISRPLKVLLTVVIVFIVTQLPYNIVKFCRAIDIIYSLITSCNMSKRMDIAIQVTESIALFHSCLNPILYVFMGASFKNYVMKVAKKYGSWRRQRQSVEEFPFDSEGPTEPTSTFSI

human ACKR4-EYFP (human) [2] = biological target: T1, human ACKR4-EYFP (human); remark: listed apart in the source

Substance	EC50 of GRK2-Nluc recruitment to ACKR4-EYFP (BRET, HeLa cells, dose-response) (human ACKR4-EYFP (human) [1]) [nM]	EC50 of GRK3-Nluc recruitment to ACKR4-EYFP (BRET, HeLa cells, dose-response) (human ACKR4-EYFP (human) [1]) [nM]	EC50 of β-arrestin1-Nluc recruitment to ACKR4-EYFP (BRET, HeLa cells, graded chemokine) (human ACKR4-EYFP (human) [2]) [nM]	EC50 of β-arrestin2-Nluc recruitment to ACKR4-EYFP (BRET, HeLa cells, graded chemokine) (human ACKR4-EYFP (human) [2]) [nM]
recombinant human CCL25 (from UniProt O15444 24-150) (ligand)	87	147	115	130
recombinant human CCL19 (from UniProt Q99731 22-98) (ligand)	35	42	76	32
recombinant human CCL21 (from UniProt O00585 24-134) (ligand)	129	142	240	133
